Reference: publication PMC10658506

T1: yeast-displayed IL-11 L57P (human)
T1 sequence (P20809 22-199 with L57P, looked up): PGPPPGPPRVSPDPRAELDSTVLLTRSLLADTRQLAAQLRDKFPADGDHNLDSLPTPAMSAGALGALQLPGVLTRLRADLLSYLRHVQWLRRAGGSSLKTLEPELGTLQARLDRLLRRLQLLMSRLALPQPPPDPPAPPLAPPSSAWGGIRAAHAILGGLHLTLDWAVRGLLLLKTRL

T2: human gp130-Fc, P40189
T2 chain: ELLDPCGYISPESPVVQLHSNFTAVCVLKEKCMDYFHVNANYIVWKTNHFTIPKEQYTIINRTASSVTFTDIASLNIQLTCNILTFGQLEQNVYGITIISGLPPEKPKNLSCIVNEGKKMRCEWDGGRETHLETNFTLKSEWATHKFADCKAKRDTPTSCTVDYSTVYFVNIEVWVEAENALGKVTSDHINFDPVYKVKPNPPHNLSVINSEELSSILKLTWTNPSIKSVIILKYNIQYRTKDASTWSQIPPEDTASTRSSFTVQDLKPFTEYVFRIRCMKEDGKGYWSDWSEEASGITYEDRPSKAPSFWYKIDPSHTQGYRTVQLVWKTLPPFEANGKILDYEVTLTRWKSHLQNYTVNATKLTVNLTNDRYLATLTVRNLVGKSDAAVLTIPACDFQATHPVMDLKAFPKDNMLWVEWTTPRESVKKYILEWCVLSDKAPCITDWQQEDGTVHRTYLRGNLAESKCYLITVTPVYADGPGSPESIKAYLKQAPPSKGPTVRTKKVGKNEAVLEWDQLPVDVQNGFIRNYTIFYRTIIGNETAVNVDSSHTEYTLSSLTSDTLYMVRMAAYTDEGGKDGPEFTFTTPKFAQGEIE


Tests used:
[1] = biological target: yeast-displayed IL-11 GIPR (human); assay: flow cytometry on cells; yeast-displayed IL-11 variants incubated with varying concentrations of soluble IL-11R or mIL-11R overnight at room temperature, washed with BPBS; receptor detected with anti-his AF647, display with anti-c-myc; apparent Kd from the fraction bound of the expressing …
[2] = biological target: T1, yeast-displayed IL-11 L57P (human); assay: as above
[3] = biological target: yeast-displayed IL-11 GIPR S60T (human); assay: as above
human gp130-Fc, P40189 = biological target: T2, human gp130-Fc, P40189; assay: flow cytometry on yeast-displayed IL-11; conditions: chain shown with the change, 100 nM IL-11R added, read off a plot

| Kd [1] | fold improvement of apparent Kd over WT IL-11 [1] | Kd [2] | fold improvement in IL-11R binding over WT IL-11 [2] | Kd [3] | response (Normalized Fluorescence) (human gp130-Fc, P40189; 10 nM gp130-Fc) | response (Normalized Fluorescence) (human gp130-Fc, P40189; 100 nM gp130-Fc) | response (Normalized Fluorescence) (human gp130-Fc, P40189; 1000 nM gp130-Fc) | Binder |
| --- | --- | --- | --- | --- | --- | --- | --- | --- |
| 0.12 nM | 70 fold | 0.71 nM | 10 fold | – | – | – | – | soluble human IL-11 receptor extracellular domain, his-tagged (receptor) SPCPQAWGPPGVQYGQPGRSVKLCCPGVTAGDPVSWFRDGEPKLLQGPDSGLGHELVLAQADSTDEGTYICQTLDGALGGTVTLQLGYPPARPVVSCQAADYENFSCTWSPSQISGLPTRYLTSYRKKTVLGADSQRRSPSTGPWPCPQDPLGAARCVVHGAEFWSQYRINVTEVNPLGASTRLLDVSLQSILRPDPPQGLRVESVPGYPRRLRASWTYPASWPCQPHFLLKFRLQYRPAQHPAWSTVEPAGLEEVITDAVAGLPHAVRVSARDFLDAGTWSTWSPEAWGTPSTGTIPKEIPAWGQLHTQPEVEPQVDSPAPPRPSLQPHPRLLDHRDSVEQVAVLA |
| 1.5 nM | – | – | – | 0.29 nM | – | – | – | soluble mouse IL-11 receptor (receptor) SPCPQAWGPPGVQYGQPGRPVMLCCPGVSAGTPVSWFRDGDSRLLQGPDSGLGHRLVLAQVDSPDEGTYVCQTLDGVSGGMVTLKLGFPPARPEVSCQAVDYENFSCTWSPGQVSGLPTRYLTSYRKKTLPGAESQRESPSTGPWPCPQDPLEASRCVVHGAEFWSEYRINVTEVNPLGASTCLLDVRLQSILRPDPPQGLRVESVPGYPRRLHASWTYPASWRRQPHFLLKFRLQYRPAQHPAWSTVEPIGLEEVITDAVAGLPHAVRVSARDFLDAGTWSAWSPEAWGTPSTGPLQDEIPDWSQGHGQQLEAVVAQEDSPAPARPSLQPDPRPLDHRDPLEQVAVLA |
| – | – | – | – | – | 28000 | 35000 | 40000 | yeast-displayed wild-type human IL-11, P20809 D19G; T21I; L57P; G62R (protein) PGPPPGPPRVSPDPRAELGSIVLLTRSLLADTRQLAAQLRDKFPADGDHNLDSLPTPAMSARALGALQLPGVLTRLRADLLSYLRHVQWLRRAGGSSLKTLEPELGTLQARLDRLLRRLQLLMSRLALPQPPPDPPAPPLAPPSSAWGGIRAAHAILGGLHLTLDWAVRGLLLLKTRL |
